Measured values taken from US20180155451A1 (published 2018).

B1: GpH7-B3 variant (S337_04F)/GpL16-k0 (antibody, human IgG1, kappa)
heavy: not shown
light: DIVMTQSPLSLPVTPGEPASISCQASESLVHSNRNTYLHWYLQKPGQSPQLLIYKVSNRFSGVPDRFSGSGSGTDFTLKISRVEAEDVGVYYCSQNTHVPPTFGQGTKVEIERTVAAPSVFIFPPSDEQLKSGTASVVCLLNNFYPREAKVQWKVDNALQSGNSQESVTEQDSKDSTYSLSSTLTLSKADYEKHKVYACEVTHQGLSSPVTKSFNRGEC
notes: Homodimerized; both H chains altered; also called Ho Ab S337_04F
B2: GpH7-B3 variant (Y300_20W)/GpL16-k0 (antibody, human IgG1, kappa)
heavy: not shown
light: B1 light
notes: Homodimerized; both H chains altered; also called Ho Ab Y300_20W
B3: GpH7-B3 variant (Y296_16H)/GpL16-k0 (antibody, human IgG1, kappa)
heavy: not shown
light: B1 light
notes: Homodimerized; both H chains altered; also called Ho Ab Y296_16H
B4: GpH7-B3 variant (T335_08L)/GpL16-k0 (antibody, human IgG1, kappa)
heavy: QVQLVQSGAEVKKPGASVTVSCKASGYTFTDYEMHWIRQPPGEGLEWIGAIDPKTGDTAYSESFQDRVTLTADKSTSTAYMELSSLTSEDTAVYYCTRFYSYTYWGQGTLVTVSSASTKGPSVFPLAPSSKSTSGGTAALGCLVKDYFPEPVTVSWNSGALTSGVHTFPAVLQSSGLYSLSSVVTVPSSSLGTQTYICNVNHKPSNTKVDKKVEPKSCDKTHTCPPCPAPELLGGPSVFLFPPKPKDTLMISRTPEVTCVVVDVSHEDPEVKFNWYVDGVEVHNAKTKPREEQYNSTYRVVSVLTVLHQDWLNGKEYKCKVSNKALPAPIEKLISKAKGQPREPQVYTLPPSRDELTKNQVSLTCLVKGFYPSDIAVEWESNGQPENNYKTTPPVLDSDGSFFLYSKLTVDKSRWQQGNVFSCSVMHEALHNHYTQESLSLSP
light: B1 light
notes: Homodimerized; both H chains altered; also called Ho Ab T335_08L
B5: GpH7-B3 variant (Y300_03V)/GpL16-k0 (antibody, human IgG1, kappa)
heavy: not shown
light: B1 light
notes: Homodimerized; both H chains altered; also called Ho Ab Y300_03V
B6: GpH7-B3 variant (T335_06M)/GpL16-k0 (antibody, human IgG1, kappa)
heavy: not shown
light: B1 light
notes: Homodimerized; both H chains altered; also called Ho Ab T335_06M
B7: GpH7-B3 variant (T335_11K)/GpL16-k0 (antibody, human IgG1, kappa)
heavy: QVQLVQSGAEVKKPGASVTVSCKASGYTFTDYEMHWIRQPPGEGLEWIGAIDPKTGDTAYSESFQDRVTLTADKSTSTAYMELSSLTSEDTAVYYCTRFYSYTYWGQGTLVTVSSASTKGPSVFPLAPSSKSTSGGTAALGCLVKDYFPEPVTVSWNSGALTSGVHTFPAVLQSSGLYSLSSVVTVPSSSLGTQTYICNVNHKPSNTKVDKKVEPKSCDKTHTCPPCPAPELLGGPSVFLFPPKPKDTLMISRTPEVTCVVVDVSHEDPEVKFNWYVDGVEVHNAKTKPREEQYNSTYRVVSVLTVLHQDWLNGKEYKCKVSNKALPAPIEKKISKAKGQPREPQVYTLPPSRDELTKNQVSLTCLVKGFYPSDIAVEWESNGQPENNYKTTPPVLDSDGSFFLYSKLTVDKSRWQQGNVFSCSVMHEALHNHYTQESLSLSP
light: B1 light
notes: Homodimerized; both H chains altered; also called Ho Ab T335_11K
B8: GpH7-B3 variant (Y300_19Q)/GpL16-k0 (antibody, human IgG1, kappa)
heavy: not shown
light: B1 light
notes: Homodimerized; both H chains altered; also called Ho Ab Y300_19Q
B9: GpH7-B3 variant (S337_08L)/GpL16-k0 (antibody, human IgG1, kappa)
heavy: not shown
light: B1 light
notes: Homodimerized; both H chains altered; also called Ho Ab S337_08L
B10: GpH7-B3 variant (T335_09D)/GpL16-k0 (antibody, human IgG1, kappa)
heavy: not shown
light: B1 light
notes: Homodimerized; both H chains altered; also called Ho Ab T335_09D
B11: GpH7-B3 variant (S337_10E)/GpL16-k0 (antibody, human IgG1, kappa)
heavy: not shown
light: B1 light
notes: Homodimerized; both H chains altered; also called Ho Ab S337_10E
B12: GpH7-B3 variant (Y300_08L)/GpL16-k0 (antibody, human IgG1, kappa)
heavy: not shown
light: B1 light
notes: Homodimerized; both H chains altered; also called Ho Ab Y300_08L
B13: GpH7-B3 variant (T335_12R)/GpL16-k0 (antibody, human IgG1, kappa)
heavy: not shown
light: B1 light
notes: Homodimerized; both H chains altered; also called Ho Ab T335_12R
B14: GpH7-B3 variant (S337_15Y)/GpL16-k0 (antibody, human IgG1, kappa)
heavy: not shown
light: B1 light
notes: Homodimerized; both H chains altered; also called Ho Ab S337_15Y
B15: GpH7-B3 variant (S337_06M)/GpL16-k0 (antibody, human IgG1, kappa)
heavy: not shown
light: B1 light
notes: Homodimerized; both H chains altered; also called Ho Ab S337_06M
B16: GpH7-B3 variant (Y296_11K)/GpL16-k0 (antibody, human IgG1, kappa)
heavy: not shown
light: B1 light
notes: Homodimerized; both H chains altered; also called Ho Ab Y296_11K
B17: GpH7-B3 variant (T335_20W)/GpL16-k0 (antibody, human IgG1, kappa)
heavy: not shown
light: B1 light
notes: Homodimerized; both H chains altered; also called Ho Ab T335_20W
B18: GpH7-B3 variant (Y300_06M)/GpL16-k0 (antibody, human IgG1, kappa)
heavy: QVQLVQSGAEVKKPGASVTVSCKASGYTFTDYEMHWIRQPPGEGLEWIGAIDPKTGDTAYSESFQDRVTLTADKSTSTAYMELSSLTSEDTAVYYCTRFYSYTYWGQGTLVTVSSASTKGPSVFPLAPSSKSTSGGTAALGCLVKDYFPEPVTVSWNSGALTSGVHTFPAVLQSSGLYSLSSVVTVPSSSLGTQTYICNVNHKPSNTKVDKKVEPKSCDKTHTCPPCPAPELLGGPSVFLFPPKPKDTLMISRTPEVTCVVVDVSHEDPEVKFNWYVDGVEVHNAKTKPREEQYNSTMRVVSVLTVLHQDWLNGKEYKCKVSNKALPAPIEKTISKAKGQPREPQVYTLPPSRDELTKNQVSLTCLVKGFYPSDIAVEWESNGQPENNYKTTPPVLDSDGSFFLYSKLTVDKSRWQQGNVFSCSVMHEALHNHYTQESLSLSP
light: B1 light
notes: Homodimerized; both H chains altered; also called Ho Ab Y300_06M
B19: GpH7-B3 variant (T335_07I)/GpL16-k0 (antibody, human IgG1, kappa)
heavy: not shown
light: B1 light
notes: Homodimerized; both H chains altered; also called Ho Ab T335_07I
B20: GpH7-B3 variant (S337_09D)/GpL16-k0 (antibody, human IgG1, kappa)
heavy: not shown
light: B1 light
notes: Homodimerized; both H chains altered; also called Ho Ab S337_09D
B21: GpH7-B3 variant (S337_07I)/GpL16-k0 (antibody, human IgG1, kappa)
heavy: not shown
light: B1 light
notes: Homodimerized; both H chains altered; also called Ho Ab S337_07I
B22: GpH7-B3 variant (Y300_11K)/GpL16-k0 (antibody, human IgG1, kappa)
heavy: not shown
light: B1 light
notes: Homodimerized; both H chains altered; also called Ho Ab Y300_11K
B23: GpH7-B3 variant (Y300_14T)/GpL16-k0 (antibody, human IgG1, kappa)
heavy: not shown
light: B1 light
notes: Homodimerized; both H chains altered; also called Ho Ab Y300_14T
B24: GpH7-B3 variant (S337_20W)/GpL16-k0 (antibody, human IgG1, kappa)
heavy: not shown
light: B1 light
notes: Homodimerized; both H chains altered; also called Ho Ab S337_20W
B25: GpH7-B3 variant (Y296_20W)/GpL16-k0 (antibody, human IgG1, kappa)
heavy: not shown
light: B1 light
notes: Homodimerized; both H chains altered; also called Ho Ab Y296_20W
B26: GpH7-B3 variant (T335_16H)/GpL16-k0 (antibody, human IgG1, kappa)
heavy: not shown
light: B1 light
notes: Homodimerized; both H chains altered; also called Ho Ab T335_16H
B27: GpH7-B3 variant (T335_19Q)/GpL16-k0 (antibody, human IgG1, kappa)
heavy: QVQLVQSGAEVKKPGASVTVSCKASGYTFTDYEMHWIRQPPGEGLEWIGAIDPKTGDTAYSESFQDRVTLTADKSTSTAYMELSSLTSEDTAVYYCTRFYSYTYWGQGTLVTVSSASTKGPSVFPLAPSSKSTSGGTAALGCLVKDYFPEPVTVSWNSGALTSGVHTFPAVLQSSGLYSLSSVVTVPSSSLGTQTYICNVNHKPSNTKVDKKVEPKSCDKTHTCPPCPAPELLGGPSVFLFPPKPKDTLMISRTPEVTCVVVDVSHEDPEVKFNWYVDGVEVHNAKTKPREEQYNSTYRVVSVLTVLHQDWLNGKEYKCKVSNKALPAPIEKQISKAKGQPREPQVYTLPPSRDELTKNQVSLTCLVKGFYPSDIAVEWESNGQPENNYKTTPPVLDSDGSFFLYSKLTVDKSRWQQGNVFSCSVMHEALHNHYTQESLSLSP
light: B1 light
notes: Homodimerized; both H chains altered; also called Ho Ab T335_19Q
B28: GpH7-B3 variant (Y296_12R)/GpL16-k0 (antibody, human IgG1, kappa)
heavy: not shown
light: B1 light
notes: Homodimerized; both H chains altered; also called Ho Ab Y296_12R
B29: GpH7-B3 variant (T335_15Y)/GpL16-k0 (antibody, human IgG1, kappa)
heavy: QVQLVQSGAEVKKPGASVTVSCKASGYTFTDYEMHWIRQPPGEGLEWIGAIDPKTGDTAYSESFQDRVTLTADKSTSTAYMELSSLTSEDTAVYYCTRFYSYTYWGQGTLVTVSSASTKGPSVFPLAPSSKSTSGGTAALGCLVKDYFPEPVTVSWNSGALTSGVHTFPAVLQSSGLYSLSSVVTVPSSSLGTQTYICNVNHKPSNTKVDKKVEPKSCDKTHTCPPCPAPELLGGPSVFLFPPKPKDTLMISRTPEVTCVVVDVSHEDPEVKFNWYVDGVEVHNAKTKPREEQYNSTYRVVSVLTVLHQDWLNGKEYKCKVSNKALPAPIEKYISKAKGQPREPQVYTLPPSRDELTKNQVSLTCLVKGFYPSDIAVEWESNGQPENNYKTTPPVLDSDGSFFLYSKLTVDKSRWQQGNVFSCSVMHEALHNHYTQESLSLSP
light: B1 light
notes: Homodimerized; both H chains altered; also called Ho Ab T335_15Y
B30: GpH7-B3 variant (Y300_02A)/GpL16-k0 (antibody, human IgG1, kappa)
heavy: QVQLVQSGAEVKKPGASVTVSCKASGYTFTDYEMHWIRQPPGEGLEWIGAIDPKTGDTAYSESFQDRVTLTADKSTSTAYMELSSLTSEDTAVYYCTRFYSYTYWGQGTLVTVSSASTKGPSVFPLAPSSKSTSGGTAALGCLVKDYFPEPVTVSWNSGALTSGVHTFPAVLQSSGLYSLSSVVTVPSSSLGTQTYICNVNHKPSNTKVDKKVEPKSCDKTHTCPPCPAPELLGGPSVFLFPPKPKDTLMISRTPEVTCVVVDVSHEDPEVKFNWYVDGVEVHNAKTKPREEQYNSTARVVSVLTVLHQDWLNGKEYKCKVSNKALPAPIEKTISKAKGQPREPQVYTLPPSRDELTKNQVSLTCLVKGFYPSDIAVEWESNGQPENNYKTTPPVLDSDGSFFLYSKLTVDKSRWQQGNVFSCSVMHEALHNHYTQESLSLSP
light: B1 light
notes: Homodimerized; both H chains altered; also called Ho Ab Y300_02A
B31: GpH7-B3 variant (T335_18N)/GpL16-k0 (antibody, human IgG1, kappa)
heavy: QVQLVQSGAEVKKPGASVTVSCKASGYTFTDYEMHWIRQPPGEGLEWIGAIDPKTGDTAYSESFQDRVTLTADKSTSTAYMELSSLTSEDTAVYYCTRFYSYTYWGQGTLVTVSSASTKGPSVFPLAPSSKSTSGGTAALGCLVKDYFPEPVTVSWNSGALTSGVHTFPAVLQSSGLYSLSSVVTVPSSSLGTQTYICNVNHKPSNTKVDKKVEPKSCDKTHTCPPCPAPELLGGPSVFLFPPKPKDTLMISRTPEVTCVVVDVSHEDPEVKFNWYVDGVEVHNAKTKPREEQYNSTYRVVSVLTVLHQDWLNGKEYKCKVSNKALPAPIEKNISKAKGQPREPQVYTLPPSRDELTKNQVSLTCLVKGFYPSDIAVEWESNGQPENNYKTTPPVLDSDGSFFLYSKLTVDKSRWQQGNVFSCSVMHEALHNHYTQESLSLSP
light: B1 light
notes: Homodimerized; both H chains altered; also called Ho Ab T335_18N
B32: GpH7-B3 variant (Y296_06M)/GpL16-k0 (antibody, human IgG1, kappa)
heavy: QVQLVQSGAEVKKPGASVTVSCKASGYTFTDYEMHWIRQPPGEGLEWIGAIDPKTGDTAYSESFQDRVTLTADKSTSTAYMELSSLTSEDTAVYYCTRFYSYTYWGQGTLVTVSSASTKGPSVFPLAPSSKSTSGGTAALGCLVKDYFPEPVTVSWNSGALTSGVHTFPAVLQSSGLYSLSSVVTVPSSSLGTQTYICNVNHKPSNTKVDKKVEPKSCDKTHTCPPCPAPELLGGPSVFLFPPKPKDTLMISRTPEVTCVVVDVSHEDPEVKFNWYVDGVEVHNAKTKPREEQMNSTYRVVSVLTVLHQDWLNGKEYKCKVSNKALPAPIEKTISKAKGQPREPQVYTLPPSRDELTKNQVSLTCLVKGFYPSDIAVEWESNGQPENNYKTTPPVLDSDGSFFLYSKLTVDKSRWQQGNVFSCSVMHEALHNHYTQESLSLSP
light: B1 light
notes: Homodimerized; both H chains altered; also called Ho Ab Y296_06M
B33: GpH7-B3 variant (S337_19Q)/GpL16-k0 (antibody, human IgG1, kappa)
heavy: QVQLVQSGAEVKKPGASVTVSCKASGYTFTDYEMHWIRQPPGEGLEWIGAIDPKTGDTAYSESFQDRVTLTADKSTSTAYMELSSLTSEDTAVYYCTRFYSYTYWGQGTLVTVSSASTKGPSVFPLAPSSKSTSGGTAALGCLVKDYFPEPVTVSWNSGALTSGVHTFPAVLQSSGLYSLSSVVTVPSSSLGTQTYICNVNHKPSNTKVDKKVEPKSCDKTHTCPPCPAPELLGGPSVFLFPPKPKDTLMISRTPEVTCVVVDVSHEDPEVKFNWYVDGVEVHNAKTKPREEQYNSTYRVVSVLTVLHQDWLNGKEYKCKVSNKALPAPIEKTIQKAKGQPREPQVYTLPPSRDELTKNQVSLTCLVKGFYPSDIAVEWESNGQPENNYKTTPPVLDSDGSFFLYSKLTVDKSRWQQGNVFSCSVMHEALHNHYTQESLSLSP
light: B1 light
notes: Homodimerized; both H chains altered; also called Ho Ab S337_19Q
B34: GpH7-B3 variant (T335_05P)/GpL16-k0 (antibody, human IgG1, kappa)
heavy: not shown
light: B1 light
notes: Homodimerized; both H chains altered; also called Ho Ab T335_05P
B35: GpH7-B3 variant (T335_10E)/GpL16-k0 (antibody, human IgG1, kappa)
heavy: not shown
light: B1 light
notes: Homodimerized; both H chains altered; also called Ho Ab T335_10E
B36: GpH7-B3 variant (Y300_13S)/GpL16-k0 (antibody, human IgG1, kappa)
heavy: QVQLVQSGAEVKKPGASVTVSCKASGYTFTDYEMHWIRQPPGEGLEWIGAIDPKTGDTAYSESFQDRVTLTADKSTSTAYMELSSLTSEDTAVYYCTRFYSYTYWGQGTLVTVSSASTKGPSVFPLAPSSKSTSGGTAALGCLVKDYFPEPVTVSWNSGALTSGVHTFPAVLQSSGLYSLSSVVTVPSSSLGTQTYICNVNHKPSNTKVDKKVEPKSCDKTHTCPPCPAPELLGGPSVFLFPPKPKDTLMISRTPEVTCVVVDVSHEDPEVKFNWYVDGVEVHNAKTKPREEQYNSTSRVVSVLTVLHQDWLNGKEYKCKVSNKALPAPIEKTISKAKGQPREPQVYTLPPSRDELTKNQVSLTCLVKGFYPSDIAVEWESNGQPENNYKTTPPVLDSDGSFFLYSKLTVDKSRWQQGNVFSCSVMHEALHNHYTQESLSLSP
light: B1 light
notes: Homodimerized; both H chains altered; also called Ho Ab Y300_13S
B37: GpH7-A5/GpH7-B3 variant (T335_04F)/GpL16-k0 (antibody, human IgG1, kappa)
heavy 1: not shown
heavy 2: not shown
light: B1 light
notes: Heterodimerized; only the B3 chain altered; also called He Ab T335_04F
B38: GpH7-A5/GpH7-B3 variant (H268_01G)/GpL16-k0 (antibody, human IgG1, kappa)
heavy 1: not shown
heavy 2: not shown
light: B1 light
notes: Heterodimerized; only the B3 chain altered; also called He Ab H268_01G
B39: GpH7-A5/GpH7-B3 variant (A330_04F)/GpL16-k0 (antibody, human IgG1, kappa)
heavy 1: not shown
heavy 2: not shown
light: B1 light
notes: Heterodimerized; only the B3 chain altered; also called He Ab A330_04F
B40: GpH7-A5/GpH7-B3 variant (A330_01G)/GpL16-k0 (antibody, human IgG1, kappa)
heavy 1: not shown
heavy 2: not shown
light: B1 light
notes: Heterodimerized; only the B3 chain altered; also called He Ab A330_01G
B41: GpH7-A5/GpH7-B3 variant (A330_19Q)/GpL16-k0 (antibody, human IgG1, kappa)
heavy 1: not shown
heavy 2: not shown
light: B1 light
notes: Heterodimerized; only the B3 chain altered; also called He Ab A330_19Q
B42: GpH7-A5/GpH7-B3 variant (A330_10E)/GpL16-k0 (antibody, human IgG1, kappa)
heavy 1: not shown
heavy 2: not shown
light: B1 light
notes: Heterodimerized; only the B3 chain altered; also called He Ab A330_10E
B43: GpH7-A5/GpH7-B3 variant (A330_20W)/GpL16-k0 (antibody, human IgG1, kappa)
heavy 1: not shown
heavy 2: not shown
light: B1 light
notes: Heterodimerized; only the B3 chain altered; also called He Ab A330_20W
B44: GpH7-A5/GpH7-B3 variant (D265_10E)/GpL16-k0 (antibody, human IgG1, kappa)
heavy 1: not shown
heavy 2: not shown
light: B1 light
notes: Heterodimerized; only the B3 chain altered; also called He Ab D265_10E

Molecular target: T1, FcγRIa extracellular domain with C-terminal His tag (human, UniProt P12314 16-292)
T1 construct: extracellular domain; Expressed in FreeStyle293 cells; used as analyte in Biacore; also called FcgRI; 1a; not shown: His tag at the C terminus
T1 sequence (P12314 16-292): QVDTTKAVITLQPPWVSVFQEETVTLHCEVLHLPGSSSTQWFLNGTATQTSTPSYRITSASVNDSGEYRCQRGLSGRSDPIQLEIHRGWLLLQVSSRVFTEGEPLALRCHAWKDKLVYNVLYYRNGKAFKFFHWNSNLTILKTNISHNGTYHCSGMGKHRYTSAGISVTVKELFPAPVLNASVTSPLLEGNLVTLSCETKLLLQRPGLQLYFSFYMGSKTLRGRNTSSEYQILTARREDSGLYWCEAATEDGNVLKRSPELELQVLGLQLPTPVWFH
Experiment: SPR (Biacore), captured antibody, FcγRIa analyte; relative to GpH7-B3/GpL16-k0 = 100

| Ho/Con_1a | Binder |
| --- | --- |
| 105 % of control | B1 |
| 110 % of control | B2 |
| 105 % of control | B3 |
| 105 % of control | B4 |
| 112 % of control | B5 |
| 106 % of control | B6 |
| 103 % of control | B7 |
| 110 % of control | B8 |
| 105 % of control | B9 |
| 107 % of control | B10 |
| 104 % of control | B11 |
| 109 % of control | B12 |
| 106 % of control | B13 |
| 104 % of control | B14 |
| 102 % of control | B15 |
| 102 % of control | B16 |
| 104 % of control | B17 |
| 111 % of control | B18 |

| Ho/Con_1a | Binder |
| --- | --- |
| 105 % of control | B19 |
| 106 % of control | B20 |
| 105 % of control | B21 |
| 101 % of control | B22 |
| 110 % of control | B23 |
| 104 % of control | B24 |
| 106 % of control | B25 |
| 104 % of control | B26 |
| 105 % of control | B27 |
| 103 % of control | B28 |
| 106 % of control | B29 |
| 110 % of control | B30 |
| 102 % of control | B31 |
| 104 % of control | B32 |
| 105 % of control | B33 |
| 106 % of control | B34 |
| 108 % of control | B35 |
| 110 % of control | B36 |

Molecular target: T1, FcγRIa extracellular domain with …
Experiment: SPR (Biacore), captured antibody, FcγRIa analyte; relative to GpH7-A5/GpH7-B3/GpL16-k0 = 100

| He/Con_1a | Binder |
| --- | --- |
| 105 % of control | B37 |
| 107 % of control | B38 |
| 106 % of control | B39 |
| 106 % of control | B40 |
| 105 % of control | B41 |
| 107 % of control | B42 |
| 108 % of control | B43 |
| 101 % of control | B44 |
